The results in this text go back to paper PMC4539205.

Experiment [1] deals with recombinant NA (rNA) of swine A/California/07/2009 (H1N1): 6xHis-tag, tetrabrachion tetramerization domain, two glycines, NA amino acids 71-469 (Staphylothermus marinus | influenza A virus, swine A/California/07/2009 (H1N1)). Briefly: SEC; […], Tris 50 mM, 150 mM NaCl pH 8, CaCl2 10 mM; […].
The target of experiment [2] is recombinant NA (rNA) of avian A/turkey/Turkey/1/2005 (H5N1): 6xHis-tag, tetrabrachion tetramerization domain, two glycines, NA amino acids 51-449 (Staphylothermus marinus | influenza A virus, avian A/turkey/Turkey/1/2005 (H5N1)). Described as above.
The target is the same in experiment [3]. Briefly: negative-stain TEM with single-particle 3D reconstruction.

On to “recombinant NA (rNA) of swine A/California/07/2009 (H1N1): 6xHis-tag, tetrabrachion tetramerization domain, two glycines, NA amino acids 71-469 (enzyme)”, for which the stoichiometry N in experiment [1] amounted to 4.

With “recombinant NA (rNA) of avian A/turkey/Turkey/1/2005 (H5N1): 6xHis-tag, tetrabrachion tetramerization domain, two glycines, NA amino acids 51-449 (enzyme)”, the stoichiometry N in experiment [2] and in experiment [3] was 4 each time.
